B1: A1B2(G4S)4 (bispecific antibody)
chain: EVQLLESGGGLVQPGGSLRLSCAASGFTFGNYDMAWVRQAPGKRPEWVSSIDTGGDITHYADSVKGRFTISRDNAKNTLYLQMNSLRPEDTAVYWCATDEEYALGPNEFDYYGQGTLVTVSGGGGSGGGGSGGGGSGGGGSQVQLVESGGGLVQAGGSLRLSCAVFGSTFSNNVADWYRQAPGKQRELVARISASGATREYGDSVKGRFTISRDDAKNTMYLQMNNLKPEDTAVYRCHKIEWEDLSRKDYWGQGTQVTVS
B2: sdAb B3 (VHH)
VHH: DVQLQESGGGLVQAGGSLRLSCAASGFIFRLAGMSWVRQAPGKGFEWVSGITMDGSTTNYADSVKGRFTISRDNSKNRLYLQMNSLKPEDTAVYYCARGAKGGYNDPRGQGTQVTVS
B3: A1D2(G4S)4 (bispecific antibody)
chain: EVQLLESGGGLVQPGGSLRLSCAASGFTFGNYDMAWVRQAPGKRPEWVSSIDTGGDITHYADSVKGRFTISRDNAKNTLYLQMNSLRPEDTAVYWCATDEEYALGPNEFDYYGQGTLVTVSGGGGSGGGGSGGGGSGGGGSDVQLQESGGGLVEAGGSLRLSCVASGRTFSGWSMGWFRQAPGKEREFVAAISWVGSWIGGTVYSNSVKGRFTISRDNARTTVYLQMNSLKPEDTAVYFCAAANSETPRIFASEYDYWGQGTQVTVS
B4: sdAb E1 (VHH)
VHH: DVQLQESGGGLVQAGGSLRLSCLASGRTFTTTSGYNMGWFRQAPGKEREFVAGIKWVSGSNRAYAESVKGRFTISRDNAKNTVYLQMNSLKPEDTAVYYCAAATGQSYVPIREYEYVYWGQGTQVTVS
B5: sdAb D1 (VHH)
VHH: DVQLQESGGGLVQAGGSLRLSCAASGLTFSRCDMGWFRQAPGKEREFVARISANGASTHYADFVKGRFTISRDNAKNTVYLQMNYLKPEDTAVYICAAARVPVTWQLYDYWGQGTQVTVS
B6: sdAb B1 (VHH)
VHH: QVQLQESGGGLVQTGGSLRLSCAVHGRTFSNTGMGWFRQAPGNERQFVAIISPSGTSTYYADSVKGRFTISRDPAKNTVYLQMNSLKMDDTAVYYCAASYGSNWSTLRHQRRNEYDAWGQGTQVAVS
B7: A1B1(G4S)4 (bispecific antibody)
chain: EVQLLESGGGLVQPGGSLRLSCAASGFTFGNYDMAWVRQAPGKRPEWVSSIDTGGDITHYADSVKGRFTISRDNAKNTLYLQMNSLRPEDTAVYWCATDEEYALGPNEFDYYGQGTLVTVSGGGGSGGGGSGGGGSGGGGSQVQLQESGGGLVQTGGSLRLSCAVHGRTFSNTGMGWFRQAPGNERQFVAIISPSGTSTYYADSVKGRFTISRDPAKNTVYLQMNSLKMDDTAVYYCAASYGSNWSTLRHQRRNEYDAWGQGTQVAVS
B8: sdAb F4 (VHH)
VHH: DVQLQESGGGLVQAGGSLRLSCAVSGLSFSSMGWFRQPPGKEREFVAAISLYSGSTYYADSVKGRFTISSDNAKSTVYLQMNSLKPEDAAVYFCAADRQRTWSTFYASRQATYNYWGQGTQVTVTS
B9: D2A1(G4S)4 (bispecific antibody)
chain: DVQLQESGGGLVEAGGSLRLSCVASGRTFSGWSMGWFRQAPGKEREFVAAISWVGSWIGGTVYSNSVKGRFTISRDNARTTVYLQMNSLKPEDTAVYFCAAANSETPRIFASEYDYWGQGTQVTVSGGGGSGGGGSGGGGSGGGGSEVQLLESGGGLVQPGGSLRLSCAASGFTFGNYDMAWVRQAPGKRPEWVSSIDTGGDITHYADSVKGRFTISRDNAKNTLYLQMNSLRPEDTAVYWCATDEEYALGPNEFDYYGQGTLVTVS
B10: A1A1(G4S)4 (VHH)
chain: EVQLLESGGGLVQPGGSLRLSCAASGFTFGNYDMAWVRQAPGKRPEWVSSIDTGGDITHYADSVKGRFTISRDNAKNTLYLQMNSLRPEDTAVYWCATDEEYALGPNEFDYYGQGTLVTVSGGGGSGGGGSGGGGSGGGGSEVQLLESGGGLVQPGGSLRLSCAASGFTFGNYDMAWVRQAPGKRPEWVSSIDTGGDITHYADSVKGRFTISRDNAKNTLYLQMNSLRPEDTAVYWCATDEEYALGPNEFDYYGQGTLVTVS
B11: A1B3(G4S)4 (bispecific antibody)
chain: EVQLLESGGGLVQPGGSLRLSCAASGFTFGNYDMAWVRQAPGKRPEWVSSIDTGGDITHYADSVKGRFTISRDNAKNTLYLQMNSLRPEDTAVYWCATDEEYALGPNEFDYYGQGTLVTVSGGGGSGGGGSGGGGSGGGGSDVQLQESGGGLVQAGGSLRLSCAASGFIFRLAGMSWVRQAPGKGFEWVSGITMDGSTTNYADSVKGRFTISRDNSKNRLYLQMNSLKPEDTAVYYCARGAKGGYNDPRGQGTQVTVS
B12: sdAb D2 (VHH)
VHH: DVQLQESGGGLVEAGGSLRLSCVASGRTFSGWSMGWFRQAPGKEREFVAAISWVGSWIGGTVYSNSVKGRFTISRDNARTTVYLQMNSLKPEDTAVYFCAAANSETPRIFASEYDYWGQGTQVTVS
B13: sdAb F3 (VHH)
VHH: DVQLQESGGGLVQAGGSLKLSCAASRGSLSRWDVAWFRQAPGKERSFVTRISWSGTTSYYADAVKGRFAISRDNAKNTVYLQMNSLKPEDTAVYYCAVALYGNRGYYDVNAHSYWGQGTQVTVS
B14: NIgG4B1A1(RS) (Fc fusion)
chain 1: QVQLQESGGGLVQTGGSLRLSCAVHGRTFSNTGMGWFRQAPGNERQFVAIISPSGTSTYYADSVKGRFTISRDPAKNTVYLQMNSLKMDDTAVYYCAASYGSNWSTLRHQRRNEYDAWGQGTQVAVSRSGPPCPPCPAPEFLGGPSVFLFPPKPKDTLMISRTPEVTCVVVDVSQEDPEVQFNWYVDGVEVHNAKTKPREEQFNSTYRVVSVLTVLHQDWLNGKEYKCKVSNKGLPSSIEKTISKAKGQPREPQVYTLPPCQEEMTKNQVSLWCLVKGFYPSDIAVEWESNGQPENNYKTTPPVLDSDGSFFLYSRLTVDKSRWQEGNVFSCSVMHEALHNHYTQKSLSLSLGK
chain 2: EVQLLESGGGLVQPGGSLRLSCAASGFTFGNYDMAWVRQAPGKRPEWVSSIDTGGDITHYADSVKGRFTISRDNAKNTLYLQMNSLRPEDTAVYWCATDEEYALGPNEFDYYGQGTLVTVSSRSGPPCPPCPAPEFLGGPSVFLFPPKPKDTLMISRTPEVTCVVVDVSQEDPEVQFNWYVDGVEVHNAKTKPREEQFNSTYRVVSVLTVLHQDWLNGKEYKCKVSNKGLPSSIEKTISKAKGQPREPQVCTLPPSQEEMTKNQVSLSCAVKGFYPSDIAVEWESNGQPENNYKTTPPVLDSDGSFFLVSRLTVDKSRWQEGNVFSCSVMHEALHNHYTQKSLSLSLGK
B15: B1A1(G4S)4 (bispecific antibody)
chain: QVQLQESGGGLVQTGGSLRLSCAVHGRTFSNTGMGWFRQAPGNERQFVAIISPSGTSTYYADSVKGRFTISRDPAKNTVYLQMNSLKMDDTAVYYCAASYGSNWSTLRHQRRNEYDAWGQGTQVAVSGGGGSGGGGSGGGGSGGGGSEVQLLESGGGLVQPGGSLRLSCAASGFTFGNYDMAWVRQAPGKRPEWVSSIDTGGDITHYADSVKGRFTISRDNAKNTLYLQMNSLRPEDTAVYWCATDEEYALGPNEFDYYGQGTLVTVS
B16: B2A1(G4S)4 (bispecific antibody)
chain: QVQLVESGGGLVQAGGSLRLSCAVFGSTFSNNVADWYRQAPGKQRELVARISASGATREYGDSVKGRFTISRDDAKNTMYLQMNNLKPEDTAVYRCHKIEWEDLSRKDYWGQGTQVTVSGGGGSGGGGSGGGGSGGGGSEVQLLESGGGLVQPGGSLRLSCAASGFTFGNYDMAWVRQAPGKRPEWVSSIDTGGDITHYADSVKGRFTISRDNAKNTLYLQMNSLRPEDTAVYWCATDEEYALGPNEFDYYGQGTLVTVS
B17: B3A1(G4S)4 (bispecific antibody)
chain: DVQLQESGGGLVQAGGSLRLSCAASGFIFRLAGMSWVRQAPGKGFEWVSGITMDGSTTNYADSVKGRFTISRDNSKNRLYLQMNSLKPEDTAVYYCARGAKGGYNDPRGQGTQVTVSGGGGSGGGGSGGGGSGGGGSEVQLLESGGGLVQPGGSLRLSCAASGFTFGNYDMAWVRQAPGKRPEWVSSIDTGGDITHYADSVKGRFTISRDNAKNTLYLQMNSLRPEDTAVYWCATDEEYALGPNEFDYYGQGTLVTVS
B18: sdAb B2 (VHH)
VHH: QVQLVESGGGLVQAGGSLRLSCAVFGSTFSNNVADWYRQAPGKQRELVARISASGATREYGDSVKGRFTISRDDAKNTMYLQMNNLKPEDTAVYRCHKIEWEDLSRKDYWGQGTQVTVS
B19: NIgG4B1A1(G4S)2 (Fc fusion)
chain 1: QVQLQESGGGLVQTGGSLRLSCAVHGRTFSNTGMGWFRQAPGNERQFVAIISPSGTSTYYADSVKGRFTISRDPAKNTVYLQMNSLKMDDTAVYYCAASYGSNWSTLRHQRRNEYDAWGQGTQVAVSGGGGSGGGGSGPPCPPCPAPEFLGGPSVFLFPPKPKDTLMISRTPEVTCVVVDVSQEDPEVQFNWYVDGVEVHNAKTKPREEQFNSTYRVVSVLTVLHQDWLNGKEYKCKVSNKGLPSSIEKTISKAKGQPREPQVYTLPPCQEEMTKNQVSLWCLVKGFYPSDIAVEWESNGQPENNYKTTPPVLDSDGSFFLYSRLTVDKSRWQEGNVFSCSVMHEALHNHYTQKSLSLSLGK
chain 2: EVQLLESGGGLVQPGGSLRLSCAASGFTFGNYDMAWVRQAPGKRPEWVSSIDTGGDITHYADSVKGRFTISRDNAKNTLYLQMNSLRPEDTAVYWCATDEEYALGPNEFDYYGQGTLVTVSSGGGGSGGGGSGPPCPPCPAPEFLGGPSVFLFPPKPKDTLMISRTPEVTCVVVDVSQEDPEVQFNWYVDGVEVHNAKTKPREEQFNSTYRVVSVLTVLHQDWLNGKEYKCKVSNKGLPSSIEKTISKAKGQPREPQVCTLPPSQEEMTKNQVSLSCAVKGFYPSDIAVEWESNGQPENNYKTTPPVLDSDGSFFLVSRLTVDKSRWQEGNVFSCSVMHEALHNHYTQKSLSLSLGK
B20: sdAb F6 (VHH)
VHH: DVQLQESGGGLVQAGGSLRLSCAASGLTFGSYDMGWYRQAPGKQRELVGRIRNDGITYYADSVKGRFTMSRDNAKNTVYLQMNSLKPEDTAVYYCAADGTGLGHYDYWGQGTQVTVS

Molecular target: mixture of three Der p 2 specific recombinant human IgE clones H10, H12, P4E (human) (UniProt P01854)
Sequence (P01854 other isoform, or with tags, fused parts or gaps): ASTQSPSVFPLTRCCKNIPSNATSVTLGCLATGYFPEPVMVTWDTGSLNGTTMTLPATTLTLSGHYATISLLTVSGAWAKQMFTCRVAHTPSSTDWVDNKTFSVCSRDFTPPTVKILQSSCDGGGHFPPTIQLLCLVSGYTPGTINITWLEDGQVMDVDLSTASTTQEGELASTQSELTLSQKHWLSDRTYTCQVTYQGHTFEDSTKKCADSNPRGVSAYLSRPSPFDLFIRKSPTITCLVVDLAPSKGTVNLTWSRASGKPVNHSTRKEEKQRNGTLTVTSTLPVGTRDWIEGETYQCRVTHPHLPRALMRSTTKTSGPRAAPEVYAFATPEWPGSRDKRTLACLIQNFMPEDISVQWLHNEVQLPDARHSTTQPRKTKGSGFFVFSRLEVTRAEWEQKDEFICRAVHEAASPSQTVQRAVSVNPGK
Test: RBL-SX38 IgE displacement, FACS

Binder	EC50	Max effect/effect 1 µM
B1	0.8 nM	100%
B2		7%
B3	4.3 nM	98%
B4		0%
B5		12%
B6		54%
B7	1.4 nM	100%
B8		17%
B9	78.7 nM	83%
B10	402 nM	45%
B11	0.4 nM	99%
B12		22%
B13		5.6%
B14	3 nM	99%
B15	1.4 nM	100%
B16	5.8 nM	92%
B17	2 nM	100%
B18		23%
B19	3 nM	99%
B20		26%
